T1: gp23* (major capsid protein of bacteriophage T4, cleaved mature form, in the expanded surface lattice) (bacteriophage T4, UniProt P04535 66-521)
T1 construct: mature; also called surface lattice protein; cleaved/expanded polyheads
T1 sequence: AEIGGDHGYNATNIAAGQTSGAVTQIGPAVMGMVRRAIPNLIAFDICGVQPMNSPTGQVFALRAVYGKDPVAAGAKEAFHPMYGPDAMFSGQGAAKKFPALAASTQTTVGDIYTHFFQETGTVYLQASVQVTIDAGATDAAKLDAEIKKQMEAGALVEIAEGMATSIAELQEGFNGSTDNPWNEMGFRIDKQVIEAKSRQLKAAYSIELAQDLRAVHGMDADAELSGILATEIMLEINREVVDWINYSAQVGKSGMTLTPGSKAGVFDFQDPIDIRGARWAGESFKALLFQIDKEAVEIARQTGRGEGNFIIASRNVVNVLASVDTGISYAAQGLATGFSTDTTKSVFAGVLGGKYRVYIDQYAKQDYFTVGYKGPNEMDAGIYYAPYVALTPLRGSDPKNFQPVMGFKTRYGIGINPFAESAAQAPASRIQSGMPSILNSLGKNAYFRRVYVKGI


Biological target: T1, gp23* (major capsid protein of …)
Experiment: co-pelleting with cleaved/expanded polyheads, quantitation of SDS-PAGE bands

Binder	molar ratio of SOC:gp23* [mol/mol]	molar ratio of SOC-V3:gp23* [mol/mol]
SOC (small outer capsid) protein of bacteriophage T4, wild type (other, mature) MASTRGYVNIKTFEQKLDGNKKIEGKEISVAFPLYSDVHKISGAHYQTFPSEKAAYSTVYEENQRTEWIAANEDLWKVTG	1.2	–
SOC-V3 fusion protein (SOC, Cys-Leu-Asn-Ser, 43-residue V3 loop domain of HIV-1 gp120) (other, mature;domain: V3 loop; also called SOV-V3) MASTRGYVNIKTFEQKLDGNKKIEGKEISVAFPLYSDVHKISGAHYQTFPSEKAAYSTVYEENQRTEWIAANEDLWKVTGCLNSSVEINCTRPNNNTRKRIRIQRGPGRAFVTIGKIGNMRQAHCNI	–	1.8
